Data: patent US6156727A, “Anti-atherosclerotic peptides and a transgenic mouse model of antherosclerosis” (UAB Research Foundation, priority 1997, dated 2000)
Values joined by “and” are separate entries in the source; they are usually repeats but may differ in a detail not shown here. Identical values can stand only once. Like-named read-outs stand apart in the source and are kept apart here. No end group written: not given here.

Experiments:
[1] = tested on: spontaneous lesions in apoE-knockout mice; experiment: IP administration of modified 18A peptide to apoE-knockout mice on normal diet; format: in vivo; conditions: for aortal lesions: IP administration, apoE-knockout mice
Experimental: Similar experiments were completed in apoE-knockout animals. The peptide used was a modified 18A of the present invention with the sequence:
This peptide was administered to animals on a normal diet, to determine if the intraperitoneal administration of this peptide would inhibit lesions that these animals produce spontaneously, even without high fat diet administration. The lesions in this case is different than that produced after sixteen weeks of high fat diet administration in 57BL6/J mice.

[2] = tested on: plasma cholesterol in B16/SJL mice; experiment: Effect of peptides on total cholesterol, high fat diet administered to B16/SJL mice; format: in vivo
Experimental: Peptide injections (50 μg/animal/day for 16 weeks).

[3] = tested on: diet administered atherosclerosis in peptide transgenic mice; experiment: In vitro fertilized peptide-transgenic mice on high fat diet for 16 weeks (plasma peptide, cholesterol, aortic cross-section); format: in vivo; conditions: transgenic IVF mice, retroorbital bleed, Western analysis; some of the mice
Description: The peptide gene was then cloned into the MunI site of the apoE-promoter that is specific for expression of the peptide/protein in the liver. SalI-Spel fragment of the apoE promoter to which the peptide gene was subcloned was microinjected into mouse oocytes to produce transgenic mice. […] Further transgenic mice were generated from these two founders and analysed for the presence of peptide gene.
This produced a number of animals with the peptide gene present in different amounts. Western analysis using the antibody produced for the chemically synthesized peptide indicated the presence of peptide in different amounts (FIG. 4).
The animals were then administered TeckLad diet that is known to produce foam cell lesions in 57BL6/J mice when administered for sixteen weeks. At the end of sixteenth week, mice were sacrificed, plasma was collected and the hearts were harvested. The aortal cross-sections were stained with Oil Red O that stains lipid laden fatty streaks. The plasma samples were subjected to lipoprotein analysis. The results of plasma analysis indicated clearly that the profiles were different from each other and some of the profiles looked very similar to the control mice on the normal diet, with the cholesterol values around ≤100 mg/dl.
Blood from the in vitro fertilized animals were obtained from the retroorbital bleed and red cells were separated by centrifugation. […]

cholesterol-loaded cells = experiment: Efflux of phospholipid and cellular cholesterol from cholesterol-loaded cells; format: cell-based
Description: 4) The amphipathic helical peptide 18A-Pro-18A mimics HDL in clearing cellular cholesterol. The removal of cholesterol from peripheral cells by HDL is thought to initiate the process of reverse cholesterol transport. HDL is capable of stimulating the net release of cholesterol from cells. This process thus inhibits the formation of foam cells, the hallmark of atherosclerosis.

[4] = molecular target: T1, HDL receptor on rat adrenal cells (Rattus norvegicus, UniProt P97943); experiment: Competition with HDL for binding to rat adrenal cells
T1 construct: endogenous in cells; host or cells: rat adrenal cells
T1 sequence (P97943 1-509): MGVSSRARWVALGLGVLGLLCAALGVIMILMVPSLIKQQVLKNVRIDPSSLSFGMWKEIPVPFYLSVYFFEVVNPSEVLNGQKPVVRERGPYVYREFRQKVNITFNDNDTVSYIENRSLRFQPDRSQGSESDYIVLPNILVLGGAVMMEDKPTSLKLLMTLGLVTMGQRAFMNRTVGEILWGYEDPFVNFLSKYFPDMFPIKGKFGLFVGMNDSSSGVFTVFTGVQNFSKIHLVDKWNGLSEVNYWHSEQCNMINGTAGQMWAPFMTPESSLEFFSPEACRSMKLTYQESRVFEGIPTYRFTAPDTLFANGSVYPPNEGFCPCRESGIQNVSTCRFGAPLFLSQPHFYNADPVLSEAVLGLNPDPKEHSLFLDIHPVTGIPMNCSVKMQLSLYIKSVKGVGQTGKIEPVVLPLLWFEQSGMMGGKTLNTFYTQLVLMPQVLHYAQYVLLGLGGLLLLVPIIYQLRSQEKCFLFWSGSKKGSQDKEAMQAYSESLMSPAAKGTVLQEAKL
Description: 5) The amphipathic helical peptide 18A-Pro-18A competes with HDL for binding to rat adrenal cells. Recently, it has been shown that HDL delivers cholesterol to the cells through class B scavenger receptor SRBI. This receptor binds HDL with high affinity and is primarily expressed in the liver and in nonplacental steroidogenic tissues.

neutrophil activation = experiment: Neutrophil activation; format: cell-based
[5] = Stability of peptide lipid complex; format: physicochemical; conditions: compared to 18A-Ala-18A and 18A-18A
Description: 1. The tandem repeating class A amphipathic helix linked by a proline forms an optimal arrangement for lipid association.
(§1) 2. The amphipathic helical peptide 18A-Pro-18A is the closest mimic of human apoA-I as a bilayer stabilizer. Bilayer stabilizers increase the transition temperature of DOPE whereas destabilizing molecules decrease the transition temperature. Such a destabilization can cause the inverted phase lipids (or hexagonal phase). Formation of this by the lytic peptide can be inhibited by human apoA-I or class A peptides.

[6] = tested on: HIV-I Gp4l-induced cell fusion; experiment: HIV-I Gp41-induced cell fusion; format: cell-based
[7] = tested on: diet-induced lipid accumulation in C57 BL6/J mice; experiment: IP administration of peptide for sixteen weeks to high fat diet administered C57BL 6/J mice (aortal histology, total cholesterol, mortality); format: in vivo
Experimental: C57BL mice were administered a high cholesterol diet (modified Thomas Hartcroft) and were divided into two groups. Group I received intraperitoneal administration of saline each day for 16 weeks. Group II received intraperitoneal administration of the peptide solution (μg/mice/day) for 16 weeks. At the end of the experiment, mice were sacrificed and aortas were harvested, cross-sectioned and stained with Oil Red O. FIGS. 1A-1F show the cross sections of the aortas from animals 1 and 2.
A dosage of peptide to be injected was selected based on the in vivo studies conducted using 18A to inhibit the LPS-induced toxicity in mice (Levine, et al., PNAS, 1993, 90:12040-12044). In these experiments, […] of the peptide 18A was used per mouse to inhibit endotoxin-induced death of mice. Because of the solubility of the peptide 37pA, and since it was desirable to maintain the same volume used by Levine et al, […] of peptide per mouse per day was injected.
Peptide 18A-Pro-18A dissolved in sterile saline was administered IP everyday for sixteen weeks 11 animals on high fat diet. Control animals on high fat diet were administered saline for sixteen weeks. At the end of sixteen weeks, animals were sacrificed and histology of hearts were done. The mortality in both the groups were similar (only three in each groups) indicating no toxicity due to peptide 18A-Pro-18A administration.

[8] = Bilayer stabilization (transition temperature of DOPE); format: physicochemical
Description: as §1

[9] = tested on: human placental lactogen synthesis; experiment: Stimulation of human placental lactogen synthesis; format: cell-based
[10] = IP administration of radiolabelled 18A-Pro-18A and human apo A-I in mice, plasma radioactivity; format: in vivo, 57BL6/J mice; conditions: for amount of the injected dosage present in the blood: 4 or 5 hours following IP injection, based on specific activity; for Total plasma cpm as a percent of the injected cpm: IP, radiolabelled, 4 or 5 hours (respectively) after injection, plasma volume assumed 4.2% of body weight; for presence of the radiolabel in isolated lipoprotein fractions (FPLC): after IP injection; for form of radioactivity in the plasma (TCA precipitation and FPLC analysis): early time points (up to 5 hours)
Experimental: Since the peptide administration experiments involves intraperitoneal administration of peptide, the effect of administration of radiolabelled peptide and human apo A-I was compared in mice. Briefly, approximately 200,000 cpm of either the peptide (4.4 μg) or human apo A-I (3.0 μg) were administered intraperitoneally into 57BL6/J mice and blood samples were taken by retro-orbital bleeding from anesthetized animals. The final time point was taken from the axilla of anesthetized animals. Radioactivity was measured in plasma sample, and was calculated as total plasma cpm, assuming plasma volume as 4.2% of the body weight.
Based on the specific activity of the radiolabelled materials, approximately […] of the injected dosage was present in the blood after 4 or 5 hours following the injection. […] It should be noted that the major lipoprotein in 57BL6/J mice is HDL.
Thus, intraperitoneal administration allows for the peptide or human apoA-I to be released into plasma gradually. Intraperitoneal administration of the peptide is therefore feasible

[11] = BSA-induced lysis of fatty acid-containing vesicles
[12] = Turnover (clearance curves) in rats; conditions: 18A-Pro-18A versus human apo A-I
[13] = rat, in vivo

With “Ac-DWLKAFYDKVFEKFKEFF-NH2 [5F, Ac-Asp-Trp-Leu-Lys-Ala-Phe-Tyr-Asp-Lys-Val-Phe-Glu-Lys-Phe-Lys-Glu-Phe-Phe-NH2]” as the substance, how does the aortal lesions ([1]; listed as SEQ No. 2) read?
The aortal lesions was “effective”.

And the aortal lesions ([1]; listed as modified 18A)?
The aortal lesions was “virtually no lesion”.

What about the “VLDL-density particles in cholesterol profile compared to control animals” value ([1]; after sixteen weeks, IP, normal diet) of the same substance?
The value was “decreased considerably”.

And the Total cholesterol ([2]; high fat diet, 50 μg/animal/day for 16 weeks, individual mice (Table III))?
The Total cholesterol was 156 and 161 and 182.

And the “levels of plasma cholesterol” value ([2]; peptide injections 50 μg/animal/day for 16 weeks)?
The value was “markedly decreases”.

For “DEPDWLKAFYDKVAEKLKEAFPDWLKAFYDKVAEKLKEAF [Asp-Glu-Pro-18A-Pro-18A]”, which “amount of peptide in the plasma” value [3] is on record?
The value was “approximately 20 μg/ml”.

With “DWLKAFYDKVAEKLKEAFPDWLKAFYDKVAEKLKEAF [18A-Pro-18A, class A amphipathic helical peptide 18A as head-to-tail dimer with a proline incorporated]” as the substance, how does the “efflux of phospholipid and cellular cholesterol” value (cholesterol-loaded cells) read?
Its value is “effectively effluxes”.

And the “competition with HDL for binding” value [4]?
Its value is “competes”.

And the “effectiveness in neutrophil activation” value (neutrophil activation)?
Its value is “most effective peptide”.

What about the stability of complex [5] of the same substance?
The stability of complex was “most stable complex”.

And the “effectiveness in HIV-I Gp4l-induced cell fusion” value [6]?
The value was “most effective peptide”.

And the “antibody to the peptide” value ([7]; IP every day for sixteen weeks)?
The value was “no antibody was detected”.

And the “toxicity (mortality compared with saline group)” value ([7]; IP every day for sixteen weeks, high fat diet)?
Its value is “no toxicity”.

What about the “foam cells in cross sections from the aorta” value ([7]; IP over 16 weeks, high fat diet, FIG. 1C) of the same substance?
Its value is “no foam cells can be seen”.

What about the “lipid accumulation in aortal cross sections compared to the control group” value ([7]; IP sixteen weeks, high fat diet, Oil Red O) of the same substance?
The value was “less lipid accumulation”.

What about the Total cholesterol ([7]; mice on high fat diet and peptide administered, individual mice (Table I)) of the same substance?
The Total cholesterol was 156 mg/dL and 161 mg/dL and 182 mg/dL.

And the bilayer stabilizing property [8]?
The bilayer stabilizing property was “most bilayer stabilizing property”.

And the “effectiveness in stimulating human placental lactogen synthesis” value [9]?
Its value is “most effective peptide”.

What about the “amount of the injected dosage present in the blood” value [10] of the same substance?
The value was “approximately 1 mg”.

What about the “Total plasma cpm as a percent of the injected cpm” value [10] of the same substance?
Its value is 25.5%.

What about the “presence of the radiolabel in isolated lipoprotein fractions (FPLC)” value [10] of the same substance?
Its value is “exclusively in HDL”.

And the “form of radioactivity in the plasma (TCA precipitation and FPLC analysis)” value [10]?
Its value is “present in the intact peptide/protein”.

What about the “effectiveness in BSA-induced lysis of fatty acid-containing vesicles” value [11] of the same substance?
The value was “most effective peptide”.

What about the clearance curves [12] of the same substance?
Its clearance curves is “virtually superimposable”.

Which results are given for “human apo A-I: human apolipoprotein A-I, protein component of HDL, used as comparator”?
clearance curves [13]: virtually superimposable; amount of the injected dosage present in the blood [10]: approximately 1 mg; Total plasma cpm as a percent of the injected cpm [10]: 32%; presence of the radiolabel in isolated lipoprotein fractions (FPLC) [10]: exclusively in HDL; form of radioactivity in the plasma (TCA precipitation and FPLC analysis) [10]: present in the intact peptide/protein
